According to US11340233B2, “Universal method to capture and analyze ADCs for characterization of drug distribution and the drug-to-antibody ratio in biological samples” (priority 2016, dated 2022):

What was measured:
[1] = In vitro ADC stability in cynomolgus monkey serum, immunoprecipitation, reduction and LC-MS; format: in vitro ADME, Cynomolgus (Macaca fascicularis); conditions: spiked 100 μg/mL, 37° C.
Experimental: (§1) ADCs were spiked in sterile mouse, rat or cynomolgus serum at a concentration of 100 μg/ml. Aliquots of 100 μl were incubated at +37° C. in Protein LoBind Tube (Eppendorf, Montesson, France). At specific times (day 1, day 4, day 7 and day 11) samples were removed from the oven and stored at −20° C. until sample processing and analysis.
ADCs were immunoprecipitated from sera using the following protocol. Briefly, 100 μl M-280 Streptavidin magnetics beads suspension were washed three times with HBS-EP buffer (0.01 M HEPES pH 7.4, 0.15 M NaCl, 3 mM EDTA, 0.005% v/v Surfactant P20) and incubated for 30 min at RT with the CaptureSelect™ Human IgG-Fc PK Biotin conjugate. Serum samples from stability studies were then added to the beads and incubated for 2 h at RT. After washing steps with HBS-EP buffer and HBS buffer (10 mM HEPES, 150 mM NaCl, 3 mM EDTA pH 7.6), the ADC was eluted with 0.4% TFA in water. After freeze drying, the samples were reconstituted and incubated with 34 mM DTT in denaturing buffer (6 M Guanidine, 0.1 M Tris, 2 mM EDTA pH 8.0) for 45 min at 56° C.
Acetic acid was then added to quench the reaction and samples were analysed by LC-MS.
Reverse phase separation was performed on an ultra-high performance liquid chromatography (UHPLC) system (Acquity UPLC H-Class Bio system, Waters) coupled to a Synapt G2si mass spectrometer, instrument control was performed using MassLynx® software (Waters).
The reduced samples were directly injected on a PLRP-S column (2.1×150 mm 8 μm, 1000 Å, Agilent) heated at 80° C. with a flow rate of 0.5 ml/min. Elution was performed with water as eluent A and acetonitrile as eluent B, both containing 0.05% TFA. The following elution gradient was applied, B was raised from 30% to 45% in 13 min and then from 45% to 95% in 2 min. The column was washed using 95% B and equilibrated using 30% B for 10 min. The autosampler temperature was set at 10° C. […]
Data were analysed using Biopharmalynx™ (Waters) software. […]

[2] = In vitro stability in cynomolgus monkey serum by total antibody and ADC ELISAs; format: in vitro ADME, Cynomolgus (Macaca fascicularis); conditions: 37° C., ELISA
Experimental: as §1
Four different Ligand Binding Assay (LBAs) systems were used to determine Total Ab or ADC concentrations for ADC1 and ADC2[19]. More precisely, an antigen-specific assay was used for ADC1 and a universal method for ADC2. For the ADC quantification, specific anti-drugs were used relevant to the payload of the ADC.
Briefly, standard microtiter plates (MSD, Gaithersburg, USA) were coated at a concentration of 2 μg/ml Goat anti Human IgG, Monkey adsorbed antibody (SouthernBiotech) for Total Ab or of 3 μg/ml mouse monoclonal antibody raised against the payloads (Epitope Diagnostic Inc.) for ADC assays in PBS. After an overnight incubation at 4° C., plates were treated with blocking buffer (3% MSD Blocker A (MSD, Gaithersburg, USA)) for 1 h at 37° C. In parallel, the standard curves (1000 ng/ml-0.488 ng/ml) using reference immunoconjugates (ADC1 or ADC2) were prepared in assay buffer (1% MSD Blocker in TBS+0.02% Tween 20). Serum samples were diluted to 1:1000 or 1:5000 in a separate 2-ml deep 96-well polypropylene plate in MSD assay buffer. Standards and samples were then loaded onto the assay plate and incubated for 1 h at 37° C. After washing with 1×PBS, the detection step was done using a 2.5 μg/ml solution of the biotinylated antigen for the ADC1 (in house preparation) or a goat anti-human Ig Kappa sulfo-tag solution (in house preparation) diluted to 1 μg/ml in assay buffer for ADC2. After a 30-min incubation at 37° C., and a washing step, the detection was allowed by adding 150 μl of a 2×MSD-read T buffer containing surfactant (MSD, Gaithersburg, USA) just before reading using MSD Sector Imager.
The amount of total antibody and ADC, in serum samples was evaluated in parallel by a quantitative sandwich ELISA. […]

## Brentuximab vedotin [ADC2]
[1]; day 0
  average DAR: 4.5
[1]; day 4
  average DAR: 2.0
[1]; days 4 to 11
  average DAR: stable
[2]; 11 days
  ADC level normalized against the total Ab concentration at each time point: decreased mainly during the four first days
[2]; over the 11-day period
  ADC concentration: decreased during this period
  total Ab level: ~100 µg/mL
